Data from patent publication US20200339678A1 (RIGEL PHARMACEUTICALS, published 2020).
Numbering of substitutions follows the chain as printed. In names and notes the source's numbering stands.

T1: mouse TIGIT-Fc (mouse, UniProt P86176 29-148)
T1 construct: extracellular domain; also called TIGIT-ECD; not shown: Fc
T1 sequence (looked up): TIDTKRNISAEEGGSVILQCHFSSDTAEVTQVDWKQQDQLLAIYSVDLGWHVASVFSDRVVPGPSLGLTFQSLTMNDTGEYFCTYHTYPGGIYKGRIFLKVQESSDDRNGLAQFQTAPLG

T2: biotinylated human TIGIT (human, UniProt Q495A1 22-141, biotinylated (EZ-Link NHS-PEG4-biotin kit))
T2 construct: extracellular domain; also called TIGIT-ECD
T2 sequence (looked up): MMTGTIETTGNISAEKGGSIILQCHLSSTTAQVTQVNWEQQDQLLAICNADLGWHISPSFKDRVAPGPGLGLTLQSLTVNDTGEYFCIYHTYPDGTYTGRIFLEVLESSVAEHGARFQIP

T3: His-tagged recombinant Human TIGIT (human, UniProt Q495A1 22-141)
T3 construct: coated antigen of the direct ELISA; not shown: His tag
T3 sequence (looked up): T2 sequence (looked up)

T4: His-tagged recombinant Mouse TIGIT (mouse, UniProt P86176 29-148, limits assumed)
T4 construct: coated antigen of the direct ELISA; not shown: His tag
T4 sequence (looked up): T1 sequence (looked up)

T5: human TIGIT fused to a beta galactosidase portion, on YTS cells (YTS_hTIGIT/hGrb2) (human, UniProt Q495A1 22-244)
T5 sequence (looked up): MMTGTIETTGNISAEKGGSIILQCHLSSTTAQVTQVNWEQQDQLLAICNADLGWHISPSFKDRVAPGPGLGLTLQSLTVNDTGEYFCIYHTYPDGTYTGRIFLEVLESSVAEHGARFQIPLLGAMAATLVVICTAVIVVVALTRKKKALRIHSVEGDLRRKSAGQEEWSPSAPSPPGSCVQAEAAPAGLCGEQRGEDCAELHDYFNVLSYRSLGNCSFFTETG

T6: His-tagged recombinant Human TIGIT (human, UniProt Q495A1 22-141)
T6 construct: also called VSIG9; VSTM3; not shown: His tag
T6 sequence (looked up): T2 sequence (looked up)

T7: His-tagged recombinant Mouse TIGIT (mouse, UniProt P86176 29-148, limits assumed)
T7 construct: not shown: His tag
T7 sequence (looked up): T1 sequence (looked up)

B1: Ab1 (Fab, V domains shown)
VH: EVQLLESGGGLVQPGGSLRLSCAASGFTFSSYAMHWVRQAPGKGLEWVSGISSNGGSTSYADSVKGRFTISRDNSKNTLYLQMNSLRAEDTAVYYCARVPYSVWIDYWGQGTLVTVSS
VL: not shown
B2: Ab1i6 (antibody, V domains shown)
VH: B1 VH with P100A
VL: not shown
notes: mIgG2a of Ab1, P96A
B3: Ab1i3 (antibody, V domains shown)
VH: B1 VH
VL: not shown
B4: Ab1i11 (antibody, V domains shown)
VH: B1 VH with W104A
VL: not shown
notes: mIgG2a of Ab1, W100A
B5: Ab1i10 (antibody, V domains shown)
VH: B1 VH with V103A
VL: not shown
notes: mIgG2a of Ab1, V99A
B6: Ab1i12 (antibody, V domains shown)
VH: B1 VH with Y101A
VL: not shown
notes: mIgG2a of Ab1, Y97A
B7: Ab1i1 (antibody, V domains shown)
VH: B1 VH
VL: not shown
B8: Ab53i8 (antibody, V domains shown)
VH: EVQLLESGGGLVQPGGSLRLSCAASGFTFSSYSMHWVRQAPGKGLEWVASIKYSSSNKYYADSVKGRFTISRDNSKNTLYLQMNSLRAEDTAVYYCARGPYDVWLDYWGQGTLVTVSS
VL: not shown
notes: mIgG2a of Ab53, S52aY
B9: Ab53i7 (antibody, V domains shown)
VH: B8 VH
VL: not shown
notes: hIgG1 of Ab53, S52aY
B10: Ab131 (Fab, V domains shown)
VH: B1 VH with H35S, G50D, S52K, N54S, G55A
VL: not shown
notes: ARV set
B11: Ab1i5 (antibody, V domains shown)
VH: B1 VH with I105A
VL: not shown
notes: mIgG2a of Ab1, I100aA
B12: Ab145 (Fab, V domains shown)
VH: B1 VH with H35S, S49A, G50S, N54S, G55T, S57Y, V99E, V103Y, I105L
VL: not shown
notes: ARE set
B13: Ab17i1 (antibody, V domains shown)
VH: B1 VH with H35S, S49A, G50S, S52K, N54S, S57N, S59Y, V99E, V103Y, I105M
VL: not shown
notes: hIgG1 of Ab17
B14: Ab1i9 (antibody, V domains shown)
VH: B1 VH with V99A
VL: not shown
notes: mIgG2a of Ab1, V95A
B15: Ab48 (Fab, V domains shown)
VH: B8 VH with H35N, S50N, Y53S, S55G, N57S, K58T, Y59S, L105M
VL: not shown
B16: Ab16i2 (antibody, V domains shown)
VH: B8 VH with S50A, Y53S, S55G, N57S, K58T, Y59S, G99V, V103Y
VL: not shown
B17: Ab40 (Fab, V domains shown)
VH: B8 VH with S33G, H35N, S50G, S56G, L105M
VL: not shown
B18: Ab153 (Fab, V domains shown)
VH: B1 VH with A33S, G50S, S52N, G55A, S57T, T58I, S102D, V103Y
VL: not shown
notes: ARV set
B19: Ab165 (Fab, V domains shown)
VH: B8 VH with S33A, H35S, S50A, Y53S, S55T, S56G, N57T, K58I, G99E, D102S
VL: not shown
notes: ARE set
B20: Ab185 (Fab, V domains shown)
VH: B1 VH with H35S, S49A, G50A, S52K, G55A, T58S, S59Y, V99E, V103Y, I105L
VL: not shown
notes: ARE set
B21: Ab157 (Fab, V domains shown)
VH: B1 VH with A33S, H35N, S49A, G50S, S52N, G55A, S59Y, S102D, V103Y, I105M
VL: not shown
notes: ARV set
B22: Ab40i2 (antibody, V domains shown)
VH: B8 VH with H35N, S50G, S56G, L105M
VL: not shown
notes: hIgG1 of Ab40, G33S
B23: Ab169 (Fab, V domains shown)
VH: B8 VH with Y53S, S54D, S55T, N57S, K58T, G99V, V103Y, L105I
VL: not shown
notes: ARV set
B24: Ab148 (Fab, V domains shown)
VH: B8 VH with H35S, Y53G, S55A, S56G, N57Y, K58I, G99V, V103Y, L105M
VL: not shown
notes: ARV set
B25: Ab53i5 (antibody, V domains shown)
VH: B8 VH with S33G
VL: not shown
B26: Ab175 (Fab, V domains shown)
VH: B1 VH with A33S, G50A, S52N, G55A, T58S, S102G, I105M
VL: not shown
notes: ARV set
B27: Ab16i1 (antibody, V domains shown)
VH: B8 VH with S50A, Y53S, S55G, N57S, K58T, Y59S, G99V, V103Y
VL: not shown
B28: Ab17i2 (antibody, V domains shown)
VH: B1 VH with H35S, S49A, G50S, S52K, N54S, S57N, S59Y, V99E, V103Y, I105M
VL: not shown
notes: mIgG2a of Ab17
B29: Ab1i8 (antibody, V domains shown)
VH: B1 VH with S102G
VL: not shown
notes: mIgG2a of Ab1, S98G
B30: Ab1i7 (antibody, V domains shown)
VH: B1 VH with S102A
VL: not shown
notes: mIgG2a of Ab1, S98A
B31: Ab40i1 (antibody, V domains shown)
VH: B8 VH with S33G, H35N, S50G, S56G, L105M
VL: not shown
notes: hIgG1 of Ab40
B32: Ab197 (Fab, V domains shown)
VH: B1 VH with A33S, S49A, G50Y, S52K, S53G, N54S, G55A, S102G, I105M
VL: not shown
notes: ARV set

Legend:
[1] = biological target: T1, mouse TIGIT-Fc; assay: comp. ELISA vs PVR
Experimental: (§1) Antibodies were serially diluted in a 10-point curve starting at 1 μM in 3-fold steps. […] Units are in microM.

[2] = biological target: T2, biotinylated human TIGIT; assay: comp. ELISA vs PVR
Experimental: as §1

[3] = biological target: T3, His-tagged recombinant Human TIGIT; assay: ELISA
Experimental: (§2) Binding affinities for antigen binding to anti-TIGIT monoclonal antibodies were determined by ELISA. […] Antibodies to be tested were diluted to 1 μM in PBS buffer containing 1% BSA and diluted 3-fold in a 10-point curve. […] Detection of the secondary antibody was determined using streptavidin-HRP and TMB reagent. All assays were performed at room temperature. Curve-fitting software was used to determine the EC₅₀ for each antibody.

[4] = biological target: T4, His-tagged recombinant Mouse TIGIT; assay: ELISA
Experimental: as §2

[5] = biological target: T5, human TIGIT fused to a beta …; assay: cell-based or functional assay
[6] = biological target: T6, His-tagged recombinant Human TIGIT; assay: ELISA, coated His-tagged human TIGIT
Experimental: as §2

[7] = biological target: T7, His-tagged recombinant Mouse TIGIT; assay: ELISA, coated His-tagged mouse TIGIT
Experimental: as §2

Binder | IC50 [1] [nM] | IC50 [2] [nM] | EC50 [3] [nM] | EC50 [4] [nM] | YTS_hTIGI/hGrbs_EFC_Agonism, 221_WT [5] [µM] | YTS_hTIGI/hGrbs_EFC_Antagonism, 221_hPVR/ICAM [5] [µM] | EC50 [6] [nM] | EC50 [7] [nM]
B1 | 632 | 89.9 | 40.3 | 181 | – | – | – | –
B2 | > 1000 | 46.9 | 29.4 | – | – | – | – | –
B3 | – | – | – | – | > 1 | 0.172 | – | –
B4 | > 1000 | > 1000 | – | – | – | – | – | –
B5 | 488 | 5.8 | 3.9 | 15.1 | – | – | – | –
B6 | > 1000 | > 1000 | – | – | – | – | – | –
B7 | – | – | – | – | 0.0091 | > 1 | – | –
B8 | – | 12.5 | 1.7 | – | 0.02 | > 1 | – | –
B9 | – | 36.3 | 3.2 | – | 0.0681 | 1.93 | – | –
B10 | – | – | – | – | – | – | 7.2 | 331
B11 | 13.3 | 2.8 | 8 | 6.8 | – | – | – | –
B12 | – | – | – | – | – | – | 232 | 50.4
B13 | 1.1 | – | – | 0.1 | 0.0012 | > 1 | – | –
B14 | 9 | 2.3 | 0.6 | 2.3 | – | – | – | –
B15 | 64.7 | 111 | 13.8 | 41.8 | – | – | – | –
B16 | 4.1 | 84.6 | 6.4 | 0.5 | – | – | – | –

Binder | IC50 [1] [nM] | IC50 [2] [nM] | EC50 [3] [nM] | EC50 [4] [nM] | YTS_hTIGI/hGrbs_EFC_Agonism, 221_WT [5] [µM] | YTS_hTIGI/hGrbs_EFC_Antagonism, 221_hPVR/ICAM [5] [µM] | EC50 [6] [nM] | EC50 [7] [nM]
B17 | > 1000 | 3.8 | 0.3 | – | > 1 | 0.0023 | – | –
B18 | – | – | – | – | – | – | 87.7 | 13.9
B19 | – | – | – | – | – | – | 12.8 | 228
B20 | – | – | – | – | – | – | 81.7 | 101
B21 | – | – | – | – | – | – | 165 | 116
B22 | > 1000 | 2 | 0.2 | – | 0.0011 | 0.186 | – | –
B23 | – | – | – | – | – | – | 153 | 110
B24 | – | – | – | – | – | – | 168 | 16.4
B25 | > 1000 | 2.1 | 0.2 | – | 0.0057 | 0.526 | – | –
B26 | – | – | – | – | – | – | 5.2 | 39.3
B27 | 0.4 | 2.1 | 2.1 | 0.5 | – | – | – | –
B28 | 1.6 | – | – | 0.2 | – | > 1 | – | –
B29 | 99.3 | 5.8 | 1.7 | 26.3 | – | – | – | –
B30 | 183 | 16.1 | 3.8 | 72.9 | – | – | – | –
B31 | > 1000 | 1.3 | 0.3 | – | > 1 | 0.0002 | – | –
B32 | – | – | – | – | – | – | 11.1 | 81.4
